These substances were tested against taxol-stabilized microtubules (UniProt Q6B856) (assay: co-sedimentation).
UniProt Q6B856, sequence (Q6B856 whole entry, looked up): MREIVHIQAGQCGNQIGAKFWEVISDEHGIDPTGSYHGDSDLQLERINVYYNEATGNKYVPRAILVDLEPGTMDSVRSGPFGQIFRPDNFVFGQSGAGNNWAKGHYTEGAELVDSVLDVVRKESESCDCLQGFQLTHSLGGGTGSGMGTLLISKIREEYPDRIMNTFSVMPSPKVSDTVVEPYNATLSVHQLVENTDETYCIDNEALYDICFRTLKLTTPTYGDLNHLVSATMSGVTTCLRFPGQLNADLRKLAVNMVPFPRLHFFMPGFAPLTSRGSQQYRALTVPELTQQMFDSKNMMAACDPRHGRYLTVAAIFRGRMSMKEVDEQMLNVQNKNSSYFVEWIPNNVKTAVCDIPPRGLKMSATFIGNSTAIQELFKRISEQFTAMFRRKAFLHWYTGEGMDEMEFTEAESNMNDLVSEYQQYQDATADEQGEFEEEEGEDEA

Kd	Substance
1270 nM	6xHIS-tagged ZmTAN1 (TANGLED1, maize) (natural protein)
590 nM	HIS-TAN1-GFP (natural protein)
60 nM	HIS-TAN1-GFP-Atto488 (natural protein)

From doi:10.1101/711796
